Entries after “also recorded” stand apart in the source; their conditions may differ. Residues, ends and D or L forms follow the SMILES beside them. *: point of attachment. Cbz = O=C(OCc1ccccc1)*; CH2F = FC*
B1: Livin β: full-length Livin isoform β, IAP family member, about 37 kDa (protein, listed as Homo sapiens)
chain: MGPKDSAKCLHRGPQPSHWAAGDGPTQERCGPRSLGSPVLGLDTCRAWDHVDGQILGQLRPLTEEEEEEGAGATLSRGPAFPGMGSEELRLASFYDWPLTAEVPPELLAAAGFFHTGHQDKVRCFFCYGGLQSWKRGDDPWTEHAKWFPSCQFLLRSKGRDFVHSVQETHSQLLGSWDPWEEPEDAAPVAPSVPASGYPELPTPRREVQSESAQEPGARDVEAQLRRLQEERTCKVCLDRAVSIVFVPCGHLVCAECAPGLQLCPICRAPVRSRVRTFLS
B2: Livin α: full-length Livin isoform α, IAP family member, about 39 kDa (protein, listed as Homo sapiens)
chain: MGPKDSAKCLHRGPQPSHWAAGDGPTQERCGPRSLGSPVLGLDTCRAWDHVDGQILGQLRPLTEEEEEEGAGATLSRGPAFPGMGSEELRLASFYDWPLTAEVPPELLAAAGFFHTGHQDKVRCFFCYGGLQSWKRGDDPWTEHAKWFPSCQFLLRSKGRDFVHSVQETHSQLLGSWDPWEEPEDAAPVAPSVPASGYPELPTPRREVQSESAQEPGGVSPAEAQRAWWVLEPPGARDVEAQLRRLQEERTCKVCLDRAVSIVFVPCGHLVCAECAPGLQLCPICRAPVRSRVRTFLS
B3: p28-Livin β: Livin β-derived peptide, cleavage product, C-terminal subunit of about 28 kDa with BIR and RING domains (protein, listed as Homo sapiens)
chain: GQILGQLRPLTEEEEEEGAGATLSRGPAFPGMGSEELRLASFYDWPLTAEVPPELLAAAGFFHTGHQDKVRCFFCYGGLQSWKRGDDPWTEHAKWFPSCQFLLRSKGRDFVHSVQETHSQLLGSWDPWEEPEDAAPVAPSVPASGYPELPTPRREVQSESAQEPGARDVEAQLRRLQEERTCKVCLDRAVSIVFVPCGHLVCAECAPGLQLCPICRAPVRSRVRTFLS
B4: p30-Livin α: Livin α-derived peptide, cleavage product, C-terminal subunit of about 30 kDa with BIR and RING domains (protein, listed as Homo sapiens)
chain: GQILGQLRPLTEEEEEEGAGATLSRGPAFPGMGSEELRLASFYDWPLTAEVPPELLAAAGFFHTGHQDKVRCFFCYGGLQSWKRGDDPWTEHAKWFPSCQFLLRSKGRDFVHSVQETHSQLLGSWDPWEEPEDAAPVAPSVPASGYPELPTPRREVQSESAQEPGGVSPAEAQRAWWVLEPPGARDVEAQLRRLQEERTCKVCLDRAVSIVFVPCGHLVCAECAPGLQLCPICRAPVRSRVRTFLS

Columns and labels:
[1] = test system: Livin cleavage in Jurkat cells; assay: Livin cleavage in Jurkat cells pre-incubated with caspase inhibitors (Western blot); assay type: cell-based, human; conditions: Jurkat cells pre-incubated with inhibitor prior to treatment
Procedure: FIG. […]
Whole cell lysates were prepared using lysis buffer (Tris-HCl 20 mM, EDTA 2 mM, β-2-Mercaptoethanol 6 mM, NP-40 1%, SDS 0.1%). Protease inhibitors included: PMSF 1 mM, Protease inhibitor cocktail (Sigma) diluted 1:10, and Complete inhibitor cocktail (Roche, Germany) diluted 1:25. About 0.25-1×10^6 cells were lysed in a total volume of 100 μl, incubated at 4° C. for 20 minutes with vigorous vortexing. Protein content was assessed by Bradford assay (Bio-Rad, Germany), according to the manufacturer's instructions. Samples were resolved on a 10% Bis-Tris pre-cast gel, following the manufacturer's instructions (Invitrogen, USA). After transferring the gel to a PVDF membrane (Millipore, Mass. USA), the membrane was exposed to the antibodies in blocking solution (PBS 1% Casein, 0.05% Tween 20) for 1 hour, followed by three 5-minute washes with PBS. The monoclonal antibody against Livin (clone:88C570) was purchased from Imgenex, and diluted 1:3000 in blocking solution. Survivin 6E4 monoclonal antibody was used according to the manufacturer's recommendation. […]
Cells were incubated with caspase inhibitors for 1-2 hour prior to treatment with the apoptotic stimuli. […] Caspase 9 activity was assessed using caspase-9 colorimetric substrate LEHD-pNA (Biovision, Calif., USA). […]

Jurkat cells [2] = assay: Protection of Livin-expressing cells from drug-induced apoptosis; assay type: cell-based, human
Procedure: Primary cultures of melanoma cells were tested for the expression of Livin, XIAP and Survivin. XIAP and Survivin were widely expressed in most of the melanoma samples tested. On the other hand, Livin was expressed at variable levels, in 10 out of the 27 melanoma samples.
To further explore the cleavage of each isoform, retroviral infection to establish a Jurkat T-cell Leukemia/Lymphoma cell line and an EBV-transformed B cell line 721.221, expressing high, stable levels of either Livin α or β were used. […] A panel of the three drugs etoposide, staurosporine, and anti-CD95/Fas ligand was thus used to induce apoptosis in the transfected Jurkat and 721.221 cells. Similar results were observed when cells were treated with anti-CD95/Fas antibody (data not shown). The correlation between the timing of the cleavage and apoptosis rate was further investigated.

Jurkat cells [3] = conditions: cited from earlier work
721.221 cells = assay: Apoptosis of stably transfected 721.221 cells after anti-CD95/Fas treatment (nuclear morphology, acridine orange); assay type: cell-based; conditions: 0.1 μg/ml anti-CD95/Fas antibody, 18 hours, compared with wild type 721.221 cells
Procedure: FIG. 6a: 721.221 cells stably expressing either Livin α or […], and wild type 721.221 cells, were treated with 0.1 μg/ml anti-CD95/Fas antibody for 18 hours. Nuclear morphology was visualized using acridine orange staining and used for determining apoptosis rate.
(§1) Transfection with the pIRES2-EGFP plasmid (QIAGEN, Germany) encoding p30-Livin α or p28-Livin β, and as positive controls, the full length wild type cDNA of either Livin α or β was done either by electroporation, in 721.221 cells [Mandelboim, O. et al. (1996) J. Exp. Med., 184: 913-922], or using PolyFect (QIAGEN), in human embryonic kidney 293T cells, according to manufacturers instructions. […] Thus, cells transfected with this plasmid may be monitored for transfection by the absence or presence of the GFP signal.
(§2) Nuclear morphology was visualized using acridin orange (Sigma) staining as described [Loo, D. T. et al. (1998) Methods Cell Biol., 57: 251-264]. […] The percentage of apoptotic to viable cells was counted by fluorescence microscopy and 500 cells were scored for each sample. […] Cells transfected with a GFP-containing plasmid were analyzed using Annexin-V-Cy5 and PI staining according to the manufacturer instructions (MBL, Japan). In stably transfected cultures with a rate of GFP-positive cells higher than 95%, all cells were analyzed for apoptosis. […]

293T cells = assay: Spontaneous apoptosis of transiently transfected 293T cells (Annexin V/PI flow cytometry of GFP-positive cells); assay type: cell-based, human; conditions: 24 hours post-transfection, in comparison to full-length proteins or empty vector
Procedure: FIG. 6c: 293T cells were transiently transfected with the indicated plasmids. 24 hours post-transfection, cells were harvested and analyzed by flow cytometry. Apoptosis of GFP-positive cells was analyzed by Annexin-V/PI stain.
as §1, §2

LB33 Mel A1 cells = assay: Cell death of transiently transfected LB33 Mel A1 cells (PI stain of GFP-positive cells); assay type: cell-based, human; conditions: data not shown; for induction of apoptosis by transient transfection: in comparison to full-length counterparts or control
Procedure: At the indicated times post transfection cells were analyzed for GFP percent as a marker of transfection, and the GFP-positive population was further analyzed for cell death using PI stain.

Molecule | cleavage of Livin [1] | rate of apoptosis following anti-CD95/Fas treatment (721.221 cells) | rate of spontaneous apoptosis (293T cells) | induction of apoptosis by transient transfection (LB33 Mel A1 cells) | further results
CC[C@H](C)[C@H](NC(=O)[C@H](CCC(=O)O)NC(=O)[C@@H](NC(C)=O)C(C)C)C(=O)N[C@H](C=O)CC(=O)O [caspase 6 inhibitor] (Ac-VEID-aldehyde) | not |  |  |  | 
COC(=O)C[C@H](NC(=O)[C@H](C)NC(=O)[C@@H](NC(=O)OCc1ccccc1)C(C)C)C(=O)CF [zVAD-FMK] (Cbz-Val-Ala-Asp(OMe)-CH2F) | significantly diminished the cleavage of Livin |  |  |  | 
B1 |  |  |  |  | protection against other chemotherapeutic agents (Jurkat cells [2]; Jurkat cells, Daunorubicin, Fludarabine and Cytosine arabinoside, unpublished data): protect Jurkat cells; inhibition of etoposide-induced apoptosis (Jurkat cells [3]; previously demonstrated by the inventors (Ashhab 2001)): inhibit etoposide-induced apoptosis; also recorded: can only block etoposide-induced apoptosis
B2 |  | lower rate of apoptosis |  |  | protection from staurosporine-induced apoptosis (Jurkat cells [2]): can protect from staurosporine-induced apoptosis; protection against anti-CD95/Fas antibody-induced apoptosis (Jurkat cells [3]; inventors' previous work (Ashhab 2001)): able to protect from apoptosis
B3 |  |  | significantly higher rate of spontaneous apoptosis | sufficient to induce apoptosis | rate of apoptosis, p28-Livin β relative to p30-Livin α (LB33 Mel A1 cells; all time points tested): more potent pro-apoptotic agent than p30-Livin α; also recorded: much higher rate of apoptosis than p30-Livin α
B4 |  | gained significant pro-apoptotic activity; also recorded: much higher rate of apoptosis | significantly higher rate of spontaneous apoptosis | sufficient to induce apoptosis | 

— patent US7517949B2, “Livin-derived peptides, compositions and uses thereof” (Hadasit Medical Research Services & Development Ltd., priority 2003, dated 2009)
